This series has as its system Factor Xa. The settings on record: compared to heparin.

Procedure: Anticoagulation Assay: PA 1 was dissolved to 5 mM in saline with 5 mM CaCl2), pH 7.2, thermally annealed at 80° C. for 30 min and slowly cooled to room temperature. The PA solution was spun down, pipetted for homogeneous mixing, and diluted to 0.25, 2.5, 25, and 100 μM in saline with 2 mM CaCl2). The anticoagulant activities of PA 1 and heparin were assessed by monitoring the activity of Factor Xa, a coagulation cascade enzyme inhibited by heparin-activated antithrombin. The assay was performed using the COATEST Heparin Kit (Chromogenix) according to the manufacturer's instructions. Values were represented as the relative bioactivity of Factor Xa when compared to treatment group treated with saline only.

Consider 3,4,6S-GlcNAc PA (VVAAEEK) [PA 1], for which the “anticoagulation activity (Factor Xa activity)” value is on record as “minimal anticoagulation activity”.

The values above are taken from patent publication US11497788B2, “Supramolecular glycosaminoglycans” (Northwestern University, priority 2015, dated 2022).
